Measured values published in patent US20250340659A1 (PETMEDIX, published 2025).

T1: recombinant canine OX40L ECD-TNCc-HIS protein (canine)
T1 construct: also called Trimeric OX40L probe (HIS tag); trimeric canine OX40L
T1 chain: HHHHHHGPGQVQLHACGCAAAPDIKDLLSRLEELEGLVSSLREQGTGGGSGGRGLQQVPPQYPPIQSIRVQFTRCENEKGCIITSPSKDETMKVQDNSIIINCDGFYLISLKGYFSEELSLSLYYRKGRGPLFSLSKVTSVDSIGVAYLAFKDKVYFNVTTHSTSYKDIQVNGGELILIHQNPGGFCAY

T2: canine OX40L, full length membrane form, expressed on HEK293 cells (canine)
T2 construct: also called OX40L expressing HEK; HEK OX40L cells
T2 chain: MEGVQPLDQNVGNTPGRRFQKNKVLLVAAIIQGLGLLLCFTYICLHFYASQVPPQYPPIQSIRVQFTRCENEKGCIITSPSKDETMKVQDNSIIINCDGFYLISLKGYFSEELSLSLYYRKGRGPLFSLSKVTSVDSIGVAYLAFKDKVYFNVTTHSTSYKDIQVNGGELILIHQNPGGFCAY


What was measured:
[1] = molecular target: T1, recombinant canine OX40L ECD-TNCc-HIS …; experiment: SPR Koff (kd2)
Experimental: (§1) Affinity (Kd) of OX40L antibodies is measured by SPR, using a recombinant canine OX40L ECD-TNCc-HIS protein (Seq ID 811) as the capturing agent (FIG. 5B).
(§2) Functional affinity is determined using a Biakore 8K (Cytiva). in brief, purified OX40L ECD-TNCc-HIS protein is covalently bound at low density to the surface of a CM5 sensor chip (Cytiva) by amine coupling, using the manufacturer's recommended protocol. Candidate antibodies are subsequently passed across the chip surface at a range of concentrations and affinity determined using the dedicated software (Biacore Insight Evaluation Software). Curves were fitted using a bivalent analyte binding model.

[2] = molecular target: T1, recombinant canine OX40L ECD-TNCc-HIS …; experiment: SPR KD1, bivalent analyte model
Experimental: as §1, §2

[3] = molecular target: T1, recombinant canine OX40L ECD-TNCc-HIS …; experiment: SPR Koff (kd1)
Experimental: as §1, §2

[4] = molecular target: T2, canine OX40L, full length membrane …; experiment: flow cytometry, OX40L HEK minus WT HEK
Method in brief: (§3)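 CHO supernatants at 1, 5 or 10 μg/ml in PBS/3% FBS incubated 30′ on ice with cells surface-expressing canine OX40L. Bound antibody detected with fluorescent anti-canine Fc secondary (1:1000, 30 min, dark) and measured by flow cytometry, with parental WT HEK signal subtracted where stated.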

[5] = molecular target: T2, canine OX40L, full length membrane …; experiment: flow cytometry
Method in brief: as §3

[6] = molecular target: T2, canine OX40L, full length membrane …; experiment: cell-based or functional assay

koff [1] | Kd [2] | koff [3] | GEO mean difference [4] | GEO mean OX40L expressing HEK [5] | % Signal Inhibition Average [6] | % Signal Inhibition Rep1 [6] | % Signal Inhibition Rep2 [6] | % Signal Inhibition Rep3 [6] | Binder
0.000624 s⁻¹ | 61 nM | 0.0148 s⁻¹ | 3.13e+06 | 3.16e+06 | 44.3% | 27.3% | 57% | 48.5% | PMX056 (antibody, also called PMX56) heavy: EVQLVESGGDLVKPEGSLRLSCVVSGFTLSSYGMSWVRQAPGRGLQWVAYISSDGRSTSYTDAVKGRFTISRDNAKNTLYLQMNSLRSEDTAVYYCVQLGRGFGMDYWGHGTSLFVSSASTTAPSVFPLAPSCGSTSGSTVALACLVSGYFPEPVTVSWNSGSLTSGVHTFPSVLQSSGLYSLSSMVTVPSSRWPSETFTCNVAHPASKTKVDKPVPKRENGRVPRPPDCPKCPAPESLGGPSVFIFPPKPKDTLLIARTPEVTCVVVDLGREDPEVQISWFVDGKQMQTAKTQPREEQFNGTYRVVSVLPIGHQDWLKGKQFTCKVNHIGLPSPIERTISKARGQAHQPSVYVLPPSREELSKNTVSLTCLIKDFFPPDIDVEWQSNGQQEPESKYRTTPPQLDEDGSYFLYSKLSVDKSRWQRGDTFICAVMHEALHNHYTQKSLSHSPGK VL: SYVLTQLPSKNVTLKQPAHITCGGDNIGSKSVHWYQQKLGQAPVVIIYYDSTRPTGIPERFSGANSGNTATLTISGALAEDEADYYCQVWDSSAAVFGGGTHLTVL
0.22 s⁻¹ | 1.29 nM | 0.00472 s⁻¹ | 3.29e+06 | 3.32e+06 | 66% | 52.1% | 72% | 73.9% | PMX057 (antibody, V domains shown, also called PMX57) VH: EVQLVESGGDLVKPEGSLRLSCVVSGFTFNNYGMSWVRQAPGKGLQWVAYISIDGRSTSYTDAVKGRFTISRDNAKNTLYLHINSLRTEDTAVYYCTKLGRGFTFGYWGQGTLVTVSS VL: SYVLTQLPSKNVTLKQPAHITCGGDNIGSKSVHWYQQKLGQAPALIIYYDSSRPTGIPERFSGANSGNTATLTISGALAEDEADYYCQVWDSSVSVFGGGTHLTVL
0.00737 s⁻¹ | 10 nM | 0.00737 s⁻¹ | 3.11e+06 | 3.14e+06 | 57.8% | 51.1% | 64.3% | 58% | PMX059 (antibody, V domains shown, also called PMX59) VH: EVHLVESGGDLVKPEGSLRLSCVVSGFTFSNYVMNWVRQAPGKGLQWVAFISGDGRSTTYTDAVKSRFTISRDNAKNTLYLQMSSLRTEDTAIYFCAKEKYSSGWSFEYWGQGTLVTVSS VL: SYVLTQLPSKNVTLKQPAHITCGGDNIGSKSVHWYQQKLGQAPVLIIYYDSSRPTGIPERFSGANSGNTATLTISGALAEDEADYYCQVWDSSASVFGGGTHLTVL
0.323 s⁻¹ | 8.46 nM | 0.0144 s⁻¹ | 3.31e+06 | 3.34e+06 | 29.1% | 12.4% | 35.3% | 39.5% | PMX058 (antibody, V domains shown, also called PMX58) VH: EVQLVESGGDLVKPEGSLRLSCVVSDFTFGSYGMSWVRQAPGKGLQWVAYISSDGRSTSYTDAVKGRFTISRDNAKNTLHLQMNSLRTEDTAVYYCAKLGRGFAFGYWGQGTLVTVSS VL: SYVLTQLPSKNVTLKQPAHITCGGDNIGSKSVHWYQQKLGQAPVLIIYYDSNRPTGIPERFSGANSGNTATLTISGALAEDEADYYCQVWDSSASVFGGGTHLTVL
0.0522 s⁻¹ | 21.6 nM | 0.00166 s⁻¹ | 1.28e+06 | 1.31e+06 | 77.4% | 87.6% | 79.1% | 65.5% | PMX036 (antibody, V domains shown, also called PMX36) VH: EVQLVESGGDLVKPGGSLRLSCVASGFTFSSYHMSWVRQAPGKGLQWVAYITSGGRTTSYADAVKGRFTISRDNAKNTLYLQMNSLRAEDTAVYYCASDLVLVLGGADYWGQGTLVTVSS VL: SYELTQPPSVNVTLRETAHITCGGDSIGRKYVQWIQQNPGQAPVVIIYKDTNRPTGIPERFSGANSGNTATLTISGALAEDEADYYCQVGDSGTKAVFGGGTHLTVL
0.000627 s⁻¹ | 17 nM | 0.00935 s⁻¹ | 1.02e+06 | 1.05e+06 | 66.4% | 61.7% | 75.4% | 62.1% | PMX028 (antibody, V domains shown, also called PMX28) VH: EVQMVESGGDLVKPGGSLRLSCVASGFTFSDYHMSWVRQAPGKGLQWVAYITSGGSSTSYADAVKGRFTISRDNAKNTLYLQMNSLRAEDTAVYYCASDLVLVVGGGVYWGQGTLVTVSS VL: SYELTQPPSVNVTLRETAHITCGGDSIGSKYVQWIQQNPGQAPVVIIYKDSNRPTGIPERFSGANSGNTATLTISGALAEDEADYYCQVGDSGTKAVFGEGTQLTVL
0.000252 s⁻¹ | 7230 nM | 0.135 s⁻¹ | 1.36e+06 | 1.39e+06 | 64.2% | 76.4% | 64.7% | 51.6% | PMX034 (antibody, V domains shown, also called PMX34) VH: EVQLVESGGDLVKPGGSLRLSCVASGFTFSNYHMSWVRQAPGKGLQWVAYIVSGGSSTTYADAVKGRFTISRDNAKNTLYLQMTSLRAEDTAVYYCASDLVLLVGGADYWGQGTLVTVSS VL: SYELTQPPSVNVTLRETAHITCGGDSIGSKYVQWIQQNPGQAPVVIIYKDSNRPTGIPERFSGANSGNTATLTISGALAEDEADYYCQVGDSGTKAVFGGGTHLTVL
0.00056 s⁻¹ | 274 nM | 0.0292 s⁻¹ | 1.48e+06 | 1.51e+06 | 78.8% | 77.8% | 87.5% | 71% | PMX042 (antibody, V domains shown, also called PMX42) VH: EVQLVESGGDLVKPGGSLRLSCVASGFTFSSYHMSWVRQAPGKGLQWVAYITSGGSTTSYADAVKGRFTISRDNAKNTLYLQMDSLRADDTAVYYCASDLVLLLGGADYWGQGTLVTVSS VL: SYELTQPPSVNVTLRETAHITCGGDSIGRKYVQWIQQHPGQAPVVIIYKDYNRPTGIPERFSGANSGNTATLTISGALAEDEADYYCQVGDSGTKAVFGGGTHLTVL
0.00101 s⁻¹ | 36.4 nM | 0.0103 s⁻¹ | 1.43e+06 | 1.46e+06 | 60.3% | 55.8% | 69.8% | 55.4% | PMX033 (antibody, V domains shown, also called PMX33) VH: EVQLVESGGDLVKPGGSLRLSCVASGFTFSSYHMSWVRQAPGKGLQWVAYITSGGRTTSYADAVKGRFTISRDNAKNTLYLQMKSLRAEDTAVYYCASDLVLVLGGAEYWGQGTLVTVSS VL: SYELTQPPSVNVTLRETAHITCGGDSIGRKYVQWIQQNPGQAPVVIIYKDSNRPTGIPERFSGANSGNTATLTISGALAEDEADYYCQVGDSGSKAVFGGGTHLTVL
1.71e-05 s⁻¹ | 7.2 nM | 0.00586 s⁻¹ | 1.42e+06 | 1.45e+06 | 70% | 76.8% | 57.4% | 75.7% | PMX032 (antibody, V domains shown, also called PMX32) VH: EVQLVESGGDLVKPGGSLRLSCVASGFTFSSYHMSWVRQAPGKGLQWVAYITSGGRTTSYADAVKGRFIISRDNAKNTLYLQMNSLRAEDTAVYYCASDLVLILGGADYWGQGTLVTVSS VL: SYELTQPPSVNVTLRETAHITCGGDSIGRKYVQWIQQNPGQAPVVIIYKDNNRPTGIPERFSGANSGNTATLTISGALAEDEADYYCQVGDSGSKAVFGGGTHLTVL
0.000796 s⁻¹ | 100 nM | 0.0105 s⁻¹ | 1.53e+06 | 1.56e+06 | 68.5% | 79.8% | 75% | 50.8% | PMX038 (antibody, V domains shown, also called PMX38) VH: EVQLVESGGDLVKPGGSLRLSCVASGFTFSSYHMSWVRQAPGKGLQWVAYITSGGRTTSYADAVKGRFTISRDNAKNTLYLQMKSLRAEDTAVYYCARDLVLVLGGAEYWGQGTLVTVSS VL: SYELTQPPSVNVTLRETAHITCGGDSIGRKYVQWIQQNPGQAPVVIIYKDSNRPTGIPERFSGANSGNTATLTISGALAEDEADYYCQVGDSGSKAVFGGGTHLTVL
